Measurements from US5854049.

What was measured:
[1] = biological target: purified human Glu-plasminogen (American Diagnostica, 98% Glu-type plasminogen) (human) (UniProt P00747)
[2] = biological target: purified human Glu-plasminogen (American Diagnostica, 98% Glu-type plasminogen) (human) (UniProt P00747); remark: listed apart in the source
[3] = biological target: native, full-length mature SK protein derived from Streptococcus equisimilus (nSK) (Streptococcus equisimilus)
[4] = biological target: rSK (fusion protein with maltose binding protein linked to the amino terminus of nSK) (Streptococcus equisimilis (SK part))

| Substance | amidolytic kinetic parameters of the SK-PAC on S2251: Km (µM), Kcat (S^-1), kcat/Km (µM^-1 S^-1) [1] | lag phase of plasminogen activation (S2251 hydrolysis, absorption at 405 nm, 21° C.) [2] | cleavage of SK by plasmin after mixing with excess Glu-plasminogen (immunoblot with monoclonal anti-SK antibodies) [3] | cleavage of SK by plasmin after mixing with excess Glu-plasminogen (immunoblot with monoclonal anti-SK antibodies) [4] |
| --- | --- | --- | --- | --- |
| native, full-length mature SK protein derived from Streptococcus equisimilus (nSK) | 0.226 µM^-1 S^-1 | < 50 s | – | – |
| plasmin (from UniProt P00747) (enzyme) | – | – | < 30 s | 1 min |
